Data taken from publication doi:10.1101/2022.01.19.476892.

Target: SARS-CoV S-6P protein (SARS-CoV) (UniProt P59594)
Assay: cryo-EM structure

Substance: SARS-CoV S-6P protein (from UniProt P59594 14-1195) (domain or fragment)
- stoichiometry N: 3
